Reference: publication PMC10113246
Where a chain is given by its changes, count along the chain named.

What was measured:
Experiment in all cases: SPR
Design in all cases: unit not given here
Details in all cases: SPR DBD-TD: 25 mM HEPES pH 7.5, 200 mM NaCl, 0.5 mM TCEP, 0.005% Tween-20, SPR DBD: 10 mM HEPES pH 7.5, 150 mM NaCl, 0.2 mM TCEP
[1] = target: T1, p63 DBD H208Y H247Y (UniProt Q9H3D4)
T1 sequence: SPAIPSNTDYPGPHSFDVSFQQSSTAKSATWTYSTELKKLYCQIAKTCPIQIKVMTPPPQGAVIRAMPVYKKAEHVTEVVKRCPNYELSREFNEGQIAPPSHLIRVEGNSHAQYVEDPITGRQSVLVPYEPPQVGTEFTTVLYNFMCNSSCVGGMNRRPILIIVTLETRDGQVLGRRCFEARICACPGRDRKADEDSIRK

[2] = target: T2, p63 DBD R298Q R337Q (UniProt Q9H3D4)
T2 sequence: T1 sequence with Y86H, R176Q

[3] = target: T3, p63 DBD R304W R343W (UniProt Q9H3D4)
T3 sequence: T1 sequence with Y86H, R182W

[4] = target: T4, p63 DBD R280S R319S (UniProt Q9H3D4)
T4 sequence: T1 sequence with Y86H, R158S

[5] = target: T5, p63 DBD R279H R318H (UniProt Q9H3D4)
T5 sequence: T1 sequence with Y86H, R157H

[6] = target: T6, p63 DBD R204W R243W (UniProt Q9H3D4)
T6 sequence: T1 sequence with R82W, Y86H

[7] = target: T7, p63 DBD WT (UniProt Q9H3D4)
T7 sequence: T1 sequence with Y86H

[8] = target: T8, p63 DBD V202M V241M (UniProt Q9H3D4)
T8 sequence: T1 sequence with V80M, Y86H

[9] = target: T9, p63 DBD Y192C Y231C (UniProt Q9H3D4)
T9 sequence: T1 sequence with Y70C, Y86H

[10] = target: T10, p63 DBD I172A I211A (UniProt Q9H3D4)
T10 sequence: T1 sequence with I50A, Y86H

[11] = target: T11, p63 DBD R227Q R266Q (UniProt Q9H3D4)
T11 sequence: T1 sequence with Y86H, R105Q

[12] = target: T12, p63 DBD-TD R304W R343W (UniProt Q9H3D4)
T12 sequence: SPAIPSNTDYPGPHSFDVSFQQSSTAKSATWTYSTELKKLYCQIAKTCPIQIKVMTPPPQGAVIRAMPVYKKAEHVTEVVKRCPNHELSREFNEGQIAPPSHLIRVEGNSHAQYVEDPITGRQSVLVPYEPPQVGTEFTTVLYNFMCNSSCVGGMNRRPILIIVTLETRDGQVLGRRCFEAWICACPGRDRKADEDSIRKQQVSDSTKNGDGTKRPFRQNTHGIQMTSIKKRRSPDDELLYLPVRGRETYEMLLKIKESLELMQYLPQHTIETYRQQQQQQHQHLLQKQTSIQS

[13] = target: T13, p63 DBD-TD R227Q R266Q (UniProt Q9H3D4)
T13 sequence: T12 sequence with R105Q, W182R

[14] = target: T14, p63 DBD-TD K193E K232E (UniProt Q9H3D4)
T14 sequence: T12 sequence with K71E, W182R

[15] = target: T15, p63 DBD-TD WT (UniProt Q9H3D4)
T15 sequence: T12 sequence with W182R

[16] = target: T16, p63 DBD-TD R280H R319H (UniProt Q9H3D4)
T16 sequence: T12 sequence with R158H, W182R

[17] = target: T17, p63 DBD-TD R280S R319S (UniProt Q9H3D4)
T17 sequence: T12 sequence with R158S, W182R

[18] = target: T18, p63 DBD-TD R298Q R337Q (UniProt Q9H3D4)
T18 sequence: T12 sequence with R176Q, W182R

TTTTTTTTTTTAAACATGTTTAAACATGTTT / AAACATGTTTAAACATGTTT [20 bp p63 consensus sequence (SPR)]
Kd [1]: 2060
Kd [2]: 90.8
Kd [3]: 220
Kd [4]: 351000
Kd [5]: 202
Kd [6]: 510
Kd [7]: 30.4
Kd [8]: 83300
Kd [9]: 1240
Kd [10]: 33.7
Kd [11]: 120

TTTTTTTTTTTGAACATGTCCCAACATGTTG / CAACATGTTGGGACATGTTC [p21 response element (SPR)]
Kd [12]: 27000
Kd [13]: 515
Kd [14]: 9920
Kd [15]: 67.9
Kd [16]: 1120
Kd [17]: 11800
Kd [18]: 435
